# Patent publication US10278923B2, “Oral dosing of GLP-1 compounds” (Novo Nordisk A/S, priority 2013, dated 2019)
# Read-outs that look alike come from different tables or passages of the source.
# Key:
# [1] = Pharmacokinetic study: variability in plasma concentration (% CV) after p.o. administration of SNAC tablet to humans; format: in vivo; conditions: for % CV AUC / % CV Cmax: p.o. tablet with 300 mg SNAC
# Procedure: The variability in plasma concentration was determined as % CV for both Cmax and AUC.
# [2] = dog, in vivo
# Procedure: The other monoclonal antibody, specific for an N-terminal epitope, was biotinylated. […] Illumination of the complex releases singlet oxygen atoms from the donor beads which channels into the acceptor beads and trigger chemiluminescence which was measured in the EnVision plate reader.
# The LC-MS system consisted of Waters Acquity UPLC system (Waters) consisting of an autosampler (Model Acq-SM), pump (Model Acq-BSM), column oven (Model Acq-SM), detector (Model Acq-TUV) and LTQ Orbitrap XL (Thermo Fisher). RP-HPLC separation was achieved using a linear gradient of acetonitrile in 0.1% formic acid using CSH C18 column (Waters, 1×150 mm) with a flow rate of 0.1 ml/min at 45° C.
# A pharmacokinetic study was carried out to determine plasma half-life of the GLP-1 peptides after p.o. administration to Beagle dogs.
# Dogs were administered p.o. GLP-1 peptide 1 in a SNAC formulation. Blood samples were drawn at predefined time points after dosing, and samples were analysed for concentration of the GLP-1 peptide. […] The variability in plasma concentration of the GLP-1 peptide was determined as % CV for AUC. […]
# Blood samples were drawn at predefined time points after dosing, and samples were analysed for concentration of the GLP-1 peptide. […] The variability in plasma concentration of the GLP-1 peptide was determined as % CV for AUC. […]
# [3] = 10 mg, single dose, healthy subjects
# [4] = 10 mg/day for 70 days, healthy subjects, Day 70
# [5] = 20 mg/day for 70 days, healthy subjects, Day 69
# [6] = 40 mg/day for 70 days, healthy subjects, Day 69
# [7] = 40 mg/day for 70 days, subjects with type 2 diabetes, Day 69
substance,measurement,setting,value
"N-epsilon26-[2-(2-{2-[2-(2-{2-[(S)-4-Carboxy-4-(17-carboxyheptadecanoyl-amino)butyrylamino]ethoxy}ethoxy)acetylamino]ethoxy}ethoxy)acetyl][Aib8,Arg34]GLP-1-(7-37) [GLP-1 peptide 1]","variability in plasma exposure, daily dosing compared to single dose","[1]; humans, 10, 20 or 40 mg daily for 70 days vs single dose of 10 mg",significantly reduced
same,% CV AUC,[1]; [3],105%
same,% CV Cmax,[1]; [3],113%
same,% CV AUC,[1]; [4],73% (Day 70)
same,% CV Cmax,[1]; [4],74% (Day 70)
same,% CV AUC,[1]; [5],67% (Day 69)
same,% CV Cmax,[1]; [5],62% (Day 69)
same,% CV AUC,[1]; [6],78% (Day 69)
same,% CV Cmax,[1]; [6],80% (Day 69)
same,% CV AUC,[1]; [7],55% (Day 69)
same,% CV Cmax,[1]; [7],54% (Day 69)
same,"variability in plasma exposure, daily dosing compared to single dose",[2],significantly reduced
same,% CV AUC,"[2]; po, 300 mg",67%
